According to patent US5985836A, “Alpha-1 proteinase inhibitor binding peptides” (Bayer Corporation, priority 1998, dated 1999):
Ends that are not written are not given here.

How the values were obtained:
A1PI = molecular target: T1, A1PI (Homo sapiens, UniProt P01009); test: A1PI binding on peptide-resin column, injection of 1 mg A1PI in equilibration buffer; conditions: for % of Total A1PI Eluted by Fraction (Based on Absorbance at 280 nm), 1M NaCl / % of Total A1PI Eluted by Fraction (Based on Absorbance at 280 nm), 2% Acetic Acid / % of Total A1PI Eluted by Fraction (Based on Absorbance at 280 nm), Flowthrough: 1 mg A1PI
T1 construct: Human plasma is currently the only approved source of therapeutic AlPI
In short: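 Percent of total eluted A1PI per fraction (flowthrough, NaCl steps, 2% acetic acid) determined by A280 integration or immunonephelometry. Columns of peptide-derivatized A-Totda-Toyopearl resin (0.1 mmole/g) received 1 mg A1PI at 4 °C or 20 °C, flow 865 or 523 μl/min.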

[1] = molecular target: T2, apolipoprotein alpha-1 (Apo A-1) (Homo sapiens, UniProt P02647); test: Purification from Effluent II+III, Apo A-1 mass balance; format: binding; conditions: 1 ml Eff. II+III, 4° C.
T2 construct: Eff; II+III is a process intermediate in the Cohn plasma fractionation process; tissue Bayer Corporation (Clayton, N.C.); host or cells: plasma fraction: Cohn Effluent II+III
In short: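 Feed: 1 ml Eff. II+III (20% EtOH, 20-25 mg/ml hSA, ~1 mg/ml A1PI). 10 min residence, then 865 μl/min; steps 1M NaCl / 3M NaCl / 2% acetic acid; 4° C. Mass balance per fraction.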

Immunoglobulin G (IgG) = test: Purification from Effluent II+III, IgG mass balance; format: binding, human; conditions: 1 ml Eff. II+III, 4° C.
In short: (§1)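 Peptide-ligand columns were loaded with 1 ml Cohn Effluent II+III (20% v/v ethanol, 20-25 mg/ml hSA, ~1 mg/ml A1PI, other plasma proteins at 0.1-1 mg/ml) using a 10 min residence time at 4° C. Step elutions at 865 μl/min used 1M NaCl, 3M NaCl, then 2% acetic acid, and protein mass balances were tracked across fractions.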

Immunoglobulin A (IgA) = test: Purification from Effluent II+III, IgA mass balance; format: binding, human; conditions: 1 ml Eff. II+III, 4° C.
In short: as §1

[2] = 1 mg A1PI in equilibration buffer, 4° C.
[3] = 1 mg A1PI in equilibration buffer, 20° C.
[4] = VIWLVR N-terminal point mutations, 4° C.
[5] = * as in Tables 4, 5 (below detection limit)

T1 sequence (P01009 25-418): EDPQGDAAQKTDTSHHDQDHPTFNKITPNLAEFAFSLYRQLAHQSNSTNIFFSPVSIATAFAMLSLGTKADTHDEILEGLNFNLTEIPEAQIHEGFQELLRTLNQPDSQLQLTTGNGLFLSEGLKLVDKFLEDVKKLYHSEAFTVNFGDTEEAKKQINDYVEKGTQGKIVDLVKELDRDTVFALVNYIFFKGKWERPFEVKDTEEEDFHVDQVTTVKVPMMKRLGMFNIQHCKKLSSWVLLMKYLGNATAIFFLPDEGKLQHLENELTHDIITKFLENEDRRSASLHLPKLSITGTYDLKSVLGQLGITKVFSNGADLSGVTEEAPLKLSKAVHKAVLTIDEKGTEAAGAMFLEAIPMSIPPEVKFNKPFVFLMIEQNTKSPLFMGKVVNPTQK
T2 sequence (P02647 19-267): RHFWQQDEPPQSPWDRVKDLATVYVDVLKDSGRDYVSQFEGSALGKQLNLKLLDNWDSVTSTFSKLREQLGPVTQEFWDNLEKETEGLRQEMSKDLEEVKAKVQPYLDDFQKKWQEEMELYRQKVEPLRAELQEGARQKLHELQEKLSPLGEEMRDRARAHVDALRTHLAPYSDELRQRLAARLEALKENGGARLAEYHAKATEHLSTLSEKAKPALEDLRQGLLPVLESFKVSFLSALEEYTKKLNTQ

In the case of VIWLVR, the “Percent A1PI Eluted by Fraction Based on Absorbance at 280 nm, 1M NaCl” value (A1PI; [2]) was 25%, the “Percent A1PI Eluted by Fraction Based on Absorbance at 280 nm, 2% Acetic Acid” value (A1PI; [2]) was 30% and the “Percent A1PI Eluted by Fraction Based on Absorbance at 280 nm, Flowthrough” value (A1PI; [2]) was 45%. For the same substance, the “Percent A1PI Eluted by Fraction, 1M NaCl” value (A1PI; [3]) was 26%, the “Percent A1PI Eluted by Fraction, 2% Acetic Acid” value (A1PI; [3]) was 66% and the “Percent A1PI Eluted by Fraction, Flowthrough” value (A1PI; [3]) was 8%. The “% of Total A1PI Eluted by Fraction (Based on Absorbance at 280 nm), 1M NaCl” value (“% of Total A1PI Eluted by Fraction … 1M NaCl” below) (A1PI; Trp position mutations, 4° C.) was 25%, the “% of Total A1PI Eluted by Fraction (Based on Absorbance at 280 nm), 2% Acetic Acid” value (A1PI; Trp position mutations, 4° C.) was 30% and the “% of Total A1PI Eluted by Fraction (Based on Absorbance at 280 nm), Flowthrough” value (from here on “% of Total A1PI Eluted by Fraction … Flowthrough”) (A1PI; Trp position mutations, 4° C.) was 45%. The “% of Total A1PI Eluted by Fraction … 1M NaCl” value (A1PI; Trp position mutations, 20° C.) was 26%, the “% of Total A1PI Eluted by Fraction (Based on Absorbance at 280 nm), 2% Acetic Acid” value (A1PI; Trp position mutations, 20° C.) was 66% and the “% of Total A1PI Eluted by Fraction … Flowthrough” value (A1PI; Trp position mutations, 20° C.) was 8%. The “% of Total A1PI Eluted by Fraction … 1M NaCl” value (A1PI; [4]) was 25%, the “% of Total A1PI Eluted by Fraction (Based on Absorbance at 280 nm), 2% Acetic Acid” value (A1PI; [4]) was 30% and the “% of Total A1PI Eluted by Fraction … Flowthrough” value (A1PI; [4]) was 45%. For the same substance, the “Percent Eluted by Fraction, 1M NaCl” value [1] was 0%, the “Percent Eluted by Fraction, 2% Acetic Acid” value [1] was 48% and the “Percent Eluted by Fraction, 3M NaCl” value [1] was 0%. The “Percent Eluted by Fraction, Flow” value [1] was 52%, the “Mass Protein per Eluate Fraction, 2% Acetic Acid” value [1, 5] was 0.29 mg and the “Mass Protein per Eluate Fraction, Flow” value [1, 5] was 0.32 mg. The “Percent Eluted by Fraction, 1M NaCl” value (Immunoglobulin G (IgG)) was 6%, the “Percent Eluted by Fraction, 2% Acetic Acid” value (Immunoglobulin G (IgG)) was 0% and the “Percent Eluted by Fraction, 3M NaCl” value (Immunoglobulin G (IgG)) was 0%. The “Percent Eluted by Fraction, Flow” value (Immunoglobulin G (IgG)) was 94%, the “Mass Protein per Eluate Fraction, 1M NaCl” value (Immunoglobulin G (IgG); [5]) was 0.02 mg and the “Mass Protein per Eluate Fraction, Flow” value (Immunoglobulin G (IgG); [5]) was 0.36 mg. The “Percent Eluted by Fraction, 1M NaCl” value (Immunoglobulin A (IgA)) was 24%, the “Percent Eluted by Fraction, 2% Acetic Acid” value (Immunoglobulin A (IgA)) was 39% and the “Percent Eluted by Fraction, 3M NaCl” value (Immunoglobulin A (IgA)) was 0%. For the same substance, the “Percent Eluted by Fraction, Flow” value (Immunoglobulin A (IgA)) was 37%, the “Mass Protein per Eluate Fraction, 1M NaCl” value (Immunoglobulin A (IgA); [5]) was 0.11 mg and the “Mass Protein per Eluate Fraction, 2% Acetic Acid” value (Immunoglobulin A (IgA); [5]) was 0.18 mg. The “Mass Protein per Eluate Fraction, Flow” value (Immunoglobulin A (IgA); [5]) was 0.17 mg.
